Target: rabbit skeletal muscle type 1 ryanodine receptor (RyR1) (rabbit (Oryctolagus cuniculus)) (UniProt P11716)
Test: cryo-EM structure

Sequence of rabbit skeletal muscle type 1 ryanodine receptor (RyR1), P11716 1-5037 (P11716 whole entry): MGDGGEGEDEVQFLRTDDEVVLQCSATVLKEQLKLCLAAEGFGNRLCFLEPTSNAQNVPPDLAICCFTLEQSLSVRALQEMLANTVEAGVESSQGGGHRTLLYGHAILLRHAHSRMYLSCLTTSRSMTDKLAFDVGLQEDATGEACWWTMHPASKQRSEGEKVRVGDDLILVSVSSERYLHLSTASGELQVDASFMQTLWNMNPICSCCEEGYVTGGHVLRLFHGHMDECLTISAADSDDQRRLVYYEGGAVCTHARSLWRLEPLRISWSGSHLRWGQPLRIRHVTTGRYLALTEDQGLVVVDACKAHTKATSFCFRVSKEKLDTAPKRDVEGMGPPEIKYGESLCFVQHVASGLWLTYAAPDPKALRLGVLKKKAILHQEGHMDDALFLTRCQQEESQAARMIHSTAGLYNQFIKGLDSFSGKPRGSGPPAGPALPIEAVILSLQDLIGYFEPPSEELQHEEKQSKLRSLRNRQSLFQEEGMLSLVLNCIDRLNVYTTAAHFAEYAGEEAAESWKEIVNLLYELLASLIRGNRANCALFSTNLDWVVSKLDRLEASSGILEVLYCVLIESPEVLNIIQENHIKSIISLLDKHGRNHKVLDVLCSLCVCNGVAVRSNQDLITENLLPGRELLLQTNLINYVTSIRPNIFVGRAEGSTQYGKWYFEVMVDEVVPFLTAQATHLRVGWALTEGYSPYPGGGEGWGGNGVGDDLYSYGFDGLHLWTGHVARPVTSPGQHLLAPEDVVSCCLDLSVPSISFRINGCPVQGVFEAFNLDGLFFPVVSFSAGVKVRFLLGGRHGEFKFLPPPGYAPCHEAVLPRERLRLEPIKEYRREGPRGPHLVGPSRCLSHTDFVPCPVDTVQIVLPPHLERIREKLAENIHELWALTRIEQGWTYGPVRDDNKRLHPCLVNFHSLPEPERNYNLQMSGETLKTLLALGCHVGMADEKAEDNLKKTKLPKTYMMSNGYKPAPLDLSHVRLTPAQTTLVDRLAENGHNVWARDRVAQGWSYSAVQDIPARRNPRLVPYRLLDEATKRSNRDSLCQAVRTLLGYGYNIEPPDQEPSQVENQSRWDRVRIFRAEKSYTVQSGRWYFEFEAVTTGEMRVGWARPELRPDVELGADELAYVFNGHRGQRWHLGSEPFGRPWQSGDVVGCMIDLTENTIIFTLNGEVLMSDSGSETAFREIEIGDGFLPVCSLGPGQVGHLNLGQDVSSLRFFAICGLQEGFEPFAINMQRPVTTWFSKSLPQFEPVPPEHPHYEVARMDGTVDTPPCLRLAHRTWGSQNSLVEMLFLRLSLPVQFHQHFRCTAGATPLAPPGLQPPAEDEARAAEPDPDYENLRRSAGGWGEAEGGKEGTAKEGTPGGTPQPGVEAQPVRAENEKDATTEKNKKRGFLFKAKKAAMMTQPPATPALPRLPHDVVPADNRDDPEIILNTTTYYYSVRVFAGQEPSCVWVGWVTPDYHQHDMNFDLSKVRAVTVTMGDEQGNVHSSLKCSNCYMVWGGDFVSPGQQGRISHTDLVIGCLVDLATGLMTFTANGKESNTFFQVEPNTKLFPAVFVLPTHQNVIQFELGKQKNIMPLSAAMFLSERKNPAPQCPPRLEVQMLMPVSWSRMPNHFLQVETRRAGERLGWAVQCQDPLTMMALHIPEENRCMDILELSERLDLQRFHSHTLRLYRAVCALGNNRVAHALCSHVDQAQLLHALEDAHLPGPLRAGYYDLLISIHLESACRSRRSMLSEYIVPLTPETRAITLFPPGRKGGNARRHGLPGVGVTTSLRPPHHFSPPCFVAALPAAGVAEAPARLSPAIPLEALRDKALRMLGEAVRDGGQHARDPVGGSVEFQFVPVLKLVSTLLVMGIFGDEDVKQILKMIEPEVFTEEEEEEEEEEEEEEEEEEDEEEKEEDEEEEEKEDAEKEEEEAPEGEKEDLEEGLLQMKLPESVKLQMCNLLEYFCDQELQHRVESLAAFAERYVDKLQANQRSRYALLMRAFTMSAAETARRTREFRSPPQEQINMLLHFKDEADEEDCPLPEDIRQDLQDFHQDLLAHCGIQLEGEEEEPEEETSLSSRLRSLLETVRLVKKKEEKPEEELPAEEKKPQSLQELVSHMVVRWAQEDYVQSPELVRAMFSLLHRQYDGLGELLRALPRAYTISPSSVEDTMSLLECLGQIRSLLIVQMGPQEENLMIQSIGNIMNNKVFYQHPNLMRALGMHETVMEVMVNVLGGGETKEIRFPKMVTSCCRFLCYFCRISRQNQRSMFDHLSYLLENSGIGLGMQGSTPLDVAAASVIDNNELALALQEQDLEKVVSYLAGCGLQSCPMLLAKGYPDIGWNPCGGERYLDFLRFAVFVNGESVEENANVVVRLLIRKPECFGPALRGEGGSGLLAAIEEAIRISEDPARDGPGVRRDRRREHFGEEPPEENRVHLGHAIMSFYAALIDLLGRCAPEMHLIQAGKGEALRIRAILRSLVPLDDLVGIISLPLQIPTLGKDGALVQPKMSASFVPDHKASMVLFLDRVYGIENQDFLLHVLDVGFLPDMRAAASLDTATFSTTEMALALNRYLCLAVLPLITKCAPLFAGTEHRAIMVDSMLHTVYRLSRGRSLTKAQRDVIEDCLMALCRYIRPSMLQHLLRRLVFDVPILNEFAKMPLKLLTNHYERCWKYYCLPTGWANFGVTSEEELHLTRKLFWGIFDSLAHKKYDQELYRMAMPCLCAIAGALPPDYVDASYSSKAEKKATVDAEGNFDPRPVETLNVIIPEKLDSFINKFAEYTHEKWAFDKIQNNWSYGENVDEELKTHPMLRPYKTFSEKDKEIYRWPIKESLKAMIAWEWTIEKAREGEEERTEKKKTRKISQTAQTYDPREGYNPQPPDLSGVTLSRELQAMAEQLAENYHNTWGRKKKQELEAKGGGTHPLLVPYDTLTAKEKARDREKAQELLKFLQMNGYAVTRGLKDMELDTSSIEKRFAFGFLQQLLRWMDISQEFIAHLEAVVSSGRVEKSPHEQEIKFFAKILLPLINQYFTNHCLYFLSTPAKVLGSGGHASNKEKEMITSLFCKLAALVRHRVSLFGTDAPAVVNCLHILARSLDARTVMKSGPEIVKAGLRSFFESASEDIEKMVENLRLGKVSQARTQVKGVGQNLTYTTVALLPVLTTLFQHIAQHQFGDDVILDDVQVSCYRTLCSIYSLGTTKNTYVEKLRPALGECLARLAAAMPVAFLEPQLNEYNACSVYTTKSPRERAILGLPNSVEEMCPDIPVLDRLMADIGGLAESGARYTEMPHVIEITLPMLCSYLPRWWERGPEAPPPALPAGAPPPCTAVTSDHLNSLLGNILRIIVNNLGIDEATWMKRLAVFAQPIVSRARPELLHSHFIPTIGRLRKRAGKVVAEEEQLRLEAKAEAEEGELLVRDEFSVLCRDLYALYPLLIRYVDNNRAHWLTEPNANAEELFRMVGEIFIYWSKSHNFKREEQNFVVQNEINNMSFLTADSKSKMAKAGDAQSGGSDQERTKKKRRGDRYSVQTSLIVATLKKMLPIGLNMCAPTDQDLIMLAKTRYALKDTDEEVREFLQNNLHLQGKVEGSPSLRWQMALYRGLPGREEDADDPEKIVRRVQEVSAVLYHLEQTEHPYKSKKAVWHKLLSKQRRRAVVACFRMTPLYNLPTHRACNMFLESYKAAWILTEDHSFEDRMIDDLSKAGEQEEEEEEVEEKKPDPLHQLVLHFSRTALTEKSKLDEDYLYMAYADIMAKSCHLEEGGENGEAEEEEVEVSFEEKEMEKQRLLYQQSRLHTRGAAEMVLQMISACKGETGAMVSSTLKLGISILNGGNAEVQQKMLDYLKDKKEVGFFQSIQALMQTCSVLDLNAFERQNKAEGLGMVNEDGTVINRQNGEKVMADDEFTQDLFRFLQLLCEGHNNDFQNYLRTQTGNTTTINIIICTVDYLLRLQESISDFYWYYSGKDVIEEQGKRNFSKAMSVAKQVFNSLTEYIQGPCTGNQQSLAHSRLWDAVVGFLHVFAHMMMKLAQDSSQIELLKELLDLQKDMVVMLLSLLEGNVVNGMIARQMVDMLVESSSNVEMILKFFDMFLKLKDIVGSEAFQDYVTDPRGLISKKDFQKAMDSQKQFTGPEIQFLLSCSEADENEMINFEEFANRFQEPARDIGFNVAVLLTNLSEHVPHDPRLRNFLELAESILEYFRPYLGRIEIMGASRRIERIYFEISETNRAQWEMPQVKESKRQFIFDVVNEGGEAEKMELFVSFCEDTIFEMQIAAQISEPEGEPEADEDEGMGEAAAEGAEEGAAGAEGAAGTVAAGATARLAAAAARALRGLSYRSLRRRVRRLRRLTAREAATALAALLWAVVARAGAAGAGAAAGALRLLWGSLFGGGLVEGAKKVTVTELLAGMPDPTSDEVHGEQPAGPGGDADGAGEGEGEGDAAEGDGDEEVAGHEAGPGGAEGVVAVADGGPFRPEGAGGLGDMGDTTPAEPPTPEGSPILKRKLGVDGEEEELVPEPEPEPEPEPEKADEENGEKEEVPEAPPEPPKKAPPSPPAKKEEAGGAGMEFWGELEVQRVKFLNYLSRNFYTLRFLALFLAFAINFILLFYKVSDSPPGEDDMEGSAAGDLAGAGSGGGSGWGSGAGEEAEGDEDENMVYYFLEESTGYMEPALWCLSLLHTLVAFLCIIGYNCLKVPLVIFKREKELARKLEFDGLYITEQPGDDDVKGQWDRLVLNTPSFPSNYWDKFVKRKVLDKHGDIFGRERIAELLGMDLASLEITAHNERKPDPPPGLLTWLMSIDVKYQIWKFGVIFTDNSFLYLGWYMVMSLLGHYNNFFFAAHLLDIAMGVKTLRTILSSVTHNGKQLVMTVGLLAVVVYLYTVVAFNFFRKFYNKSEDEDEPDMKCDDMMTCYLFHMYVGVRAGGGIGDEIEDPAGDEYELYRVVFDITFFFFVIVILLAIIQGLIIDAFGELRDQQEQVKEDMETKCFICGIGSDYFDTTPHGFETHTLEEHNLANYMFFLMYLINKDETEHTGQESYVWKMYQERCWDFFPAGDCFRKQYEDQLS

stoichiometry N: 4
Substance: rabbit skeletal muscle type 1 ryanodine receptor (RyR1), P11716 1-5037

Source: publication PMC4300236
